From the RNAGym collection of RNA variant scans (doi:10.1073/pnas.2313332121)
Fewer inactive variants are shown than the library holds.

B1: TPR 5TU (parent)
chain: GGAUCUUCUCGAUCUAACAAAAAAGACAAAUCUGCCACAAAGCUUGAGAGCAUCUUCGGAUGCAGAGGCGGCAGCCUUCGGUGGCGCGAUAGCGCCAACGUUCUCAACUAUGACACGCAAAACGCGUGCUCCGUUGAAUGGAGUUUAUCAUG

Variants of: B1
Assay: polymerase ribozyme fitness, log enrichment relative to wild type (log ratio); higher = more active; in vitro selection for triplet polymerase activity
Summary of the method: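 Mutant libraries were PCR-built and transcribed for each subunit of a heterodimeric triplet polymerase ribozyme and selected for one round in triplicate at −7 °C, frozen, before gel excision of extended constructs and streptavidin-bead capture. Input and output libraries were Illumina-sequenced, keeping genotypes with ≥10 input reads and ≥1 read per output. Fitness is a logarithmic ratio of genotype to wild-type enrichment, in base 2, using inverse-variance-weighted replicate averages.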

Row | Variant | polymerase ribozyme fitness (log ratio)
1 | C54A C69A G84A G88A | ≤ -4.2
2 | U53A C95A C125U | -1.7
3 | U53A U55G G65C C85G C87U C103U C131A | ≤ -4.2
4 | U53C A64G U90C G117C | ≤ -4.2
5 | U53A C54A G65U G86U A91U | ≤ -4.2
6 | A52U U56A A66U C93A C123G G143A U146A | ≤ -4.2
7 | A52U U53A C57A G86A | -1.31
8 | U53A A97G A121U C125A | -1.26
9 | U53A C57U A97G | -1.24
10 | A52U U82G U135G A150U | -2.62
11 | U53G C93A C103G | ≤ -4.2
12 | U53G C96A U104G | -3.96
13 | U53C C69U C75A C93U A115C | ≤ -4.2
14 | U53A C75U | -1.34
15 | U53A C123U | -0.0861
16 | A52U C118U U146G | -3.62
17 | U53A U148G | -4.01
18 | U53A C57U G143C | -3.52
19 | U53C G83C C116G | -3.05
20 | U53A G58C C96U U135G | -3.98
21 | U53A U55G | -3.97
22 | U53G C54A C95U U104C A106U C118U C149G | ≤ -4.2
23 | U53A G92U A107U G136U | ≤ -4.2
24 | C54A C93G U135G | ≤ -4.2

Row | Variant | polymerase ribozyme fitness (log ratio)
25 | U53A G59C C85U U135A | -0.238
26 | U53G U55A U78A C93U A142C U148C | ≤ -4.2
27 | C54A C79U C93A A113U U127G | ≤ -4.2
28 | A52U G83A C95U | -3.78
29 | C54A G94U A97C C125G | -2.89
30 | C54A C85G U102G | ≤ -4.2
31 | U53A G70C C114A | ≤ -4.2
32 | U53A C118G U144C | -1.81
33 | U53A G94A C125A U139C A142C | ≤ -4.2
34 | A52U U139G U144C | -1.12
35 | U53A G59C C76G C85U A89C A97C A107U G117U G133A U139G | ≤ -4.2
36 | A52U U78C U102C | -2.88
37 | A52U U55A | -1.7
38 | U53A U101G C125A | -0.788
39 | U53A C75G U109G U139C | ≤ -4.2
40 | A52U C125U | -1.42
41 | U53A C72U A97G U134A | -3.33
42 | U53A C99U C116U | -1.7
43 | U53A G140C | -3.65
44 | C54G A64G A106U A107C U148A | ≤ -4.2
45 | C54A G84A A142C | -4.19
46 | A52U C95A C103G C116G G133U | ≤ -4.2
47 | A52U G74A C87A A119U U148G | ≤ -4.2
48 | A52U G84A G143C | -3.92

Row | Variant | polymerase ribozyme fitness (log ratio)
49 | A52U G67U C85A C125G | ≤ -4.2
50 | U53A C54U C57A G86A | -2.08
51 | U53A C93A | -3.27
52 | U53A G81A C85A C131U | -4.19
53 | U53G G59A | -1.37
54 | C54A U148C | -3.69
55 | A52U U104A G133C G141C U146G | ≤ -4.2
56 | U53A A60G C96U A106U U139G | -2.41
57 | U53G A115C G143A | -4.06
58 | U53A C132U U146G | -3.87
59 | U53G G92U G143U U144A | -3.84
60 | U53A U61A U109G | -2.25
61 | U53A G58A A73U C75A A89U G92U A110U G126U G140A A147U | ≤ -4.2
62 | U53G U135C | -3.23
63 | A52U U61G A91G C96A G117C | -3.76
64 | C54A C69U U144C | -3.51
65 | U53G G80C | -4.15
66 | C54A U56A G68U U82G G83C G133C | ≤ -4.2
67 | U53A G58A G71A G126A U135G | ≤ -4.2
68 | C54A U101A | -2.39
69 | U53C G74A C76G C96U A110U | ≤ -4.2
70 | U53A G143C | -2.05
71 | U53A C96U C103U | -1.14
72 | U53A G59A G84U | -1.32

Row | Variant | polymerase ribozyme fitness (log ratio)
73 | U53A C93A C105A A119G | ≤ -4.2
74 | U53A U55A G83U C123A G128U A147U | ≤ -4.2
75 | A52U U53G U56A G65C C75U C85U U104G U127C U139A | ≤ -4.2
76 | U53A C96A C129G | -3.82
77 | C54A U61G | -1.82
78 | U53G A113U | -3.16
79 | C54A G58C | -1.45
80 | A52U G59A A98G | -1.21
81 | C54A U55A C57A | 0.336
82 | C54A U55A U56A C96A G141C | -4.08
83 | C54A C76G A89U G92U U130G C149A U151A | ≤ -4.2
84 | U53A C63A A66G G67A G84A A97G | ≤ -4.2
85 | U53A C93U G140C | ≤ -4.2
86 | C54A A66G A91G C95G G141A G143U U146C | ≤ -4.2
87 | U53A A60U U61A C69G C96U | -3.74
88 | U53G G84U C96G | ≤ -4.2
89 | C54A G58A A91U C95A | ≤ -4.2
90 | C54A U55G G83A U102C C108G G126A | ≤ -4.2
91 | U53A G83C G94U A97G U101G U102G C116A G140U | ≤ -4.2
92 | C54A C118A | -1.5
93 | U53A C93A C99U G141U | ≤ -4.2
94 | U53A U55G C57A | 0.733
95 | U53A A66C A89G G94C C99G | -3.94
96 | U53A C54A A147C | -2.75

Row | Variant | polymerase ribozyme fitness (log ratio)
97 | U53G C72G C108G C116A | ≤ -4.2
98 | C54A A64G U111C G133U G140A G143A | ≤ -4.2
99 | U53C U78G U127C U148C | ≤ -4.2
100 | U53A U135A | -1.55
101 | A52U C93A U139G | ≤ -4.2
102 | U53G C96U C114U A120C A147U | -3.11
103 | U53G U77G C129A A147C | ≤ -4.2
104 | U53A C93A U101C C125U C132U G140U A147C | ≤ -4.2
105 | A52U G92U C105A | -3.93
106 | C54A C85U | -1.86
107 | C54A C116U U139A | -4.11
108 | U53G C118U | -1.68
109 | U53G U56A G94C A115C C123G | -3.89
110 | U53A C63U C69U A122U | -3.99
111 | U53A A66C A91U U104G G124A G141A | ≤ -4.2
112 | C54A G136A | -0.852
113 | C54A C105U A121G | -0.876
114 | C54A C57U G59U | -0.27
115 | U53G C95U | -3.07
116 | U53A C96U C99U G143C | ≤ -4.2
117 | A52U U82A C93A C131G | ≤ -4.2
118 | C54A C79A G100A | ≤ -4.2
119 | U53A G141U | 0.504
120 | C54A A150G | -3.37

Row | Variant | polymerase ribozyme fitness (log ratio)
121 | C54A U55A C103G | ≤ -4.2
122 | U53G U55A C79U G86A G88A C103U U148C | ≤ -4.2
123 | U53A G58C A73U C95A | ≤ -4.2
124 | U53G A97C | -1.81
125 | U53G A97U | -2.68
126 | U53A U56A G58A C85U | 0.824
127 | C54A C79A C87U U144C A150G U151A | ≤ -4.2
128 | C54A A91U | ≤ -4.2
129 | C54A A91G | -3.97
130 | U53G A60G C87A | ≤ -4.2
131 | A52U U53A | -1.23
132 | C54A G88C | -3.99
133 | A52U G86U U104C | -3.56
134 | U53A C75U C85U C123U C125A | -2.32
135 | C54A U101G U134C U139G U144A | -1.85
136 | U53A G81A C95U A120C U144G | -1.05
137 | U53A G92U C103A | -2.78
138 | U53G U55A U148C | ≤ -4.2
139 | U53A U55A G62C | -2.35
140 | U53A G143A U146C | -2.83
141 | U53A G117A | -0.303
142 | U53A G58A G80A G81A C87U | -2.31
143 | U53A C57G | -2.09
144 | U53A A97C A113G | -3.54

Row | Variant | polymerase ribozyme fitness (log ratio)
145 | C54A C125U | -3.73
146 | U53G U90G G100A G124A U144C | ≤ -4.2
147 | U53G C96G U144C | -3.23
148 | C54A U55A A60U | -1.37
149 | A52U G81A C87A A97U U104G G126C U134G G136C | ≤ -4.2
150 | C54A G92U U135G | -4.08
151 | C54A G94U G140A | ≤ -4.2
152 | C54A U144G | -0.801
153 | U53A C54U U55A A60U U77G C85U G92A G112A A121U | ≤ -4.2
154 | U53A G83A C114U | -3.28
155 | U53A A66U | ≤ -4.2
156 | U53A A66C | -4.19
157 | U53C U77C | ≤ -4.2
158 | C54A C105U | -0.396
159 | U53G G62C C85U U109C | ≤ -4.2
160 | U53A A122G U134A | -3.02
161 | U53A A98U | -1.39
162 | U53A A107U | -2.93
163 | U53A G62A G86U | -2.24
164 | U53A G70A C99A G124C | ≤ -4.2
165 | U53A C57A C69G A91C | ≤ -4.2
166 | C54A C57G | -3
167 | C54A U104A C131U | -2.14
